From the supplement of paper PMC9170038

System: MS2 coat protein
Experiment: apparent KD of MS2 coat protein; designed switch direction (-1 OFF switch, 1 ON switch): 1; higher = weaker reporter binding
Summary of the method: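 For each design, the apparent KD is the median over clusters of curves fitted to normalised cluster fluorescence. Clusters held RNA switches with common flanks, transcribed on Illumina chips by stalled E. coli RNA polymerase. These were titrated with SNAP-549-labelled MS2 coat protein, doubling from 0.7 or 1.5 nM to 3 µM, without input, with 200 uM small-molecule ligand, or with an oligonucleotide input.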

[1] = Eterna round: R95, input ligand: FMN 200 uM
[2] = Eterna round: R95, input ligand: microRNA oligo, concentration not stated
[3] = Eterna round: R95, input ligand: none
[4] = input ligand: microRNA oligo, concentration not stated

Sequence | apparent KD of MS2 coat protein [1] [nM] | apparent KD of MS2 coat protein [2] [nM] | apparent KD of MS2 coat protein [3] [nM] | apparent KD of MS2 coat protein (input ligand: FMN 200 uM) [nM] | apparent KD of MS2 coat protein [4] [nM] | apparent KD of MS2 coat protein (input ligand: none) [nM]
AGUUGUGGGAAACUAUAGCAGACGCUCGUACAUGAGGAUCACCCAUGUCUUGUAGGAGCUGUUUGCUCGUUUUAUGG [ak 1 mod of one Eli's designs.] (puzzle: Sensor for hsa-mir-208a) | 62.8 | 50.1 | – | – | – | –
AUAAAACAUGAGGAUCACCCAUGUUAACAAAGUCGAGGAUAUGGGCAAAUAAAAUAAGAACCAGAAGGCGAAUAAU [salish99_ss1_r3_045] (puzzle: Same State 1) | 16.8 | 27.9 | 27.7 | – | – | –
AUAAAAGAAAGAAACACAUGAGGAUCACCCAUGUAACGACUACAGGAUAUGCUGCACAGUCCAAAGCAGAAGGGUGGUCAAAAC [Qulaesed] (Eterna round: R96, puzzle: Same State NG 3) | – | – | – | 280 | 111 | 102
AUAAACAGGCUAGGAUAUCCGGAAACUACAGGACACGACCCUGUGGACAUGAGGAUCACCCAUGUGGAGAAGGAGCCACAUGAA [Onvete] (Eterna round: R96, puzzle: Same State NG 2) | – | – | – | 31.4 | 223 | 145
AUAAGUUCGAUGCUCGUCUCUCCGUACAAACAUGAGGAUCACCCAUGUGAUUGGACAAAAGCCCAAUCAGUAUGGCC [Cebeince] (puzzle: Sensor for hsa-mir-208a) | 35.9 | 21.4 | 40.9 | – | – | –
AUAAUACAUGAGGAUCACCCAUGUCAACAAAGUCGAGGAUAUGGGCAAAUAAAAUAAGAACCAGAAGGCGAAUAAU [salish99_ss1_r3_046] (puzzle: Same State 1) | 34.2 | 359 | 240 | – | – | –
AUACCAUCAGGAGGAUAUGGCACCUUAUUGGUGCCAGAAGGUCUAACAUGAGGAUCACCCAUGUGGGAGUGGUCUAAUGACCAC [Eli NG1ss - 86] (Eterna round: R96, puzzle: Same State NG 1) | – | – | – | 73.7 | 72.3 | 91
AUAGUUUCCGAAGGAUAUGAUGAGGAUCACCCAUCAGAAGGUUGGCUAUUGGGCUGACAUGAGGAUCACCCAUGUUUCGGUGUU (Eterna round: R96, puzzle: Same State NG 1) | – | – | – | 33 | 29.1 | 41.4
AUAUAACAUGAGGAUCACCCAUGUCUCUAAAGUCGAGGAUAUGGGCAGGUUAUAUCCGAACCAGAAGGCGGGUUAU [SS1 Teenbexe 8] (Eterna round: R96, puzzle: Same State 1) | – | – | – | 1020 | 287 | 554
AUAUAACAUGAGGAUCACCCAUGUCUCUAAAGUCGAGGAUAUGGGCAGGUUAUAUCCGAACCAGAAGGCGGGUUAU [SS1 Teenbexe 8] (puzzle: Same State 1) | 177 | 123 | 146 | – | – | –
AUAUGAGGAGCAGGAUAUGCGAAGAAGAAAGAAGUAGAAGGGCUCAUGGGACGACAUGAGGAUCACCCAUGUACUUCCCGAUGA [AK SSNG1-V2-7] (Eterna round: R96, puzzle: Same State NG 1) | – | – | – | 24.6 | 26.6 | 37.7
AUCCGAACCAUAGGAUAUACUGGCCUCGGGCCAGUAGAAGGGUGGGACAUGAGGAUCACCCAUGUAAAGCACAAUCAGUGCAAA [Ceramace] (Eterna round: R96, puzzle: Same State NG 1) | – | – | – | 167 | 119 | 151
AUGAAGAAUUAAGGAUAUUGAUUACAUAUGUUUAACAUGAGGAUCACCCAUGUGGGUUGCGGUAUCGAGAAGGUAAAUUAAAAG [Mat - same State NG 2 - JL mod - D88] (Eterna round: R96, puzzle: Same State NG 2) | – | – | – | – | 156 | –
AUGACAUGCACAGGAUAUUAGGCGCAGUACAGAUAAGAAGGGUGGAUCAGCAUACAUGAGGAUCACCCAUGUUGUUGUAACAUG [Same State 1 S2] (Eterna round: R96, puzzle: Same State NG 1) | – | – | – | – | 252 | –
AUGAUUAAUGCAGGAUAUGAUUAACAUGAGGAUCACCCAUGUGGUGUUGUGAGUAAGGAGAGUGAUCAGAAGGGCAUUUUUUUU [JMF's solution 34] (Eterna round: R96, puzzle: Same State NG 2) | – | – | – | 731 | 430 | 701
AUUAAACAUGAGGAUCACCCAUGUCAACAAAGUCGAGGAUAUGGGCAUAUUAUCUAAUAACCAGAAGGCGAAUAAU [salish99_ss1_r3_085] (Eterna round: R96, puzzle: Same State 1) | – | – | – | – | 177 | –

Sequence | apparent KD of MS2 coat protein [1] [nM] | apparent KD of MS2 coat protein [2] [nM] | apparent KD of MS2 coat protein [3] [nM] | apparent KD of MS2 coat protein (input ligand: FMN 200 uM) [nM] | apparent KD of MS2 coat protein [4] [nM] | apparent KD of MS2 coat protein (input ligand: none) [nM]
AUUAAACAUGAGGAUCACCCAUGUCAACAAAGUCGAGGAUAUGGGCAUAUUAUCUAAUAACCAGAAGGCGAAUAAU [salish99_ss1_r3_085] (puzzle: Same State 1) | 43.8 | 194 | 210 | – | – | –
AUUACUAGCAUAGGAUAUCAUGCGAAAAUUGCGUGAGAAGGGUGGACGCUGUCAUUCACGGAAGACAUGAGGAUCACCCAUGUC [SameState NG1 #74] (Eterna round: R96, puzzle: Same State NG 1) | – | – | – | 142 | 68.5 | 94
AUUAGUAAUGCAGGAUAUGAUUAACAUGAGGAUCACCCAUGUGGUGUUGUGAGUAAGGAGAGUGAUCAGAAGGGCAUUUUUUUU [JMF's solution 28] (Eterna round: R96, puzzle: Same State NG 2) | – | – | – | 979 | 411 | 444
AUUAUACAUGAGGAUCACCCAUGUAAUUAAUCUAGUAAGAUCUAGGAUAUCAGCUCGUUUAGAGCUGAGAAGGAGAUCACAUGU [SSNG3/20-D3] (Eterna round: R96, puzzle: Same State NG 3) | – | – | – | – | 38 | –
AUUAUACAUGAGGAUCACCCAUGUAAUUAAUUAAUUAAGAUCUAGGAUAUCAGCUCGAAUAGAGCUGAGAAGGAGAUCACAUGU [SSNG3/20-C1] (Eterna round: R96, puzzle: Same State NG 3) | – | – | – | – | 24.2 | –
AUUAUACAUGAGGAUCACCCAUGUCAACAAAGUCGAGGAUAUGGGCAAAUAAAAUAAGAACCAGAAGGCGAAUAAU [salish99_ss1_r3_069] (Eterna round: R96, puzzle: Same State 1) | – | – | – | 69.2 | 189 | 293
AUUAUACAUGAGGAUCACCCAUGUCAACAAAGUCGAGGAUAUGGGCAAAUAAAAUAAGAACCAGAAGGCGAAUAAU [salish99_ss1_r3_069] (puzzle: Same State 1) | 51.3 | 155 | 259 | – | – | –
AUUAUACAUGAGGAUCACCCAUGUCAAUGUAGUCGAGGAUAUGGGCAGCUGUGAGGCGUACUAGAAGGCGAAGAGA [Mat - Same State 1 - Mod of JL - D9] (puzzle: Same State 1) | 59.9 | 192 | 222 | – | – | –
AUUAUUAAUGCAGGAUAUGAUUAACAUGAGGAUCACCCAUGUGGUGUUGUGAGUAAGGAGAGUGAUCAGAAGGGCAGUUUUUUU [JMF's solution 8] (Eterna round: R96, puzzle: Same State NG 2) | – | – | – | 614 | 227 | 262
AUUAUUAAUGCAGGAUAUGAUUAACAUGAGGAUCACCCAUGUGGUGUUGUGAGUAAGGAGAGUGAUCAGAAGGGCAUUUCUUUU [JMF's solution 11] (Eterna round: R96, puzzle: Same State NG 2) | – | – | – | 468 | 241 | 373
AUUAUUAAUGCAGGAUAUGAUUAACAUGAGGAUCACCCAUGUGGUGUUGUGAGUAAGGAGAGUGAUCAGAAGGGCAUUUUUUUC [JMF's solution 20] (Eterna round: R96, puzzle: Same State NG 2) | – | – | – | 672 | 369 | 399
AUUAUUAGUGCAGGAUAUGAUUAACAUGAGGAUCACCCAUGUGGUGUUGUGAGUAAGGAGAGUGAUCAGAAGGGCAUUUUUUUU [JMF's solution 21] (Eterna round: R96, puzzle: Same State NG 2) | – | – | – | 659 | 333 | 406
AUUAUUUCUGCAGGAUAUGAUUAACAUGAGGAUCACCCAUGUGGUGUUGUGAGUAAGGAGAGUGAUCAGAAGGGCAUUUUUUUU [JMF's solution 62] (Eterna round: R96, puzzle: Same State NG 2) | – | – | – | 630 | 211 | 313
AUUGCUAGCACAGGAUAUCAUGCGAAAAUUGCGUGAGAAGGGUGUACUCUGUCAUUGCCGGAGGACAUGAGGAUCACCCAUGUC [SameState NG1 #82] (Eterna round: R96, puzzle: Same State NG 1) | – | – | – | 218 | 33.6 | 37.5
AUUUAACAAGCUUUUUGCUCGUCUUAUAAACAUGAGGAUCACCCAUGUAAUAGCGUGAGAGUAAAUUAAUAAAUAAU [JMF 83] (puzzle: Sensor for hsa-mir-208a) | 14.5 | 44.7 | 13.5 | – | – | –
AUUUAACAAGCUUUUUGCUCGUCUUAUAAACAUGAGGAUCACCCAUGUAAUAGCGUGAGAGUAAUUAUUUAAAUAAU [JMF 94] (puzzle: Sensor for hsa-mir-208a) | 16.1 | 37.5 | 14.7 | – | – | –
